For assay [1], the target named is T1, SARS-CoV-2 prototype RBD with human IgG Fc-tag (SARS-CoV-2, UniProt P0DTC2). Nature of the assay: cell-based or functional assay.
The target in assay [2] is T1, SARS-CoV-2 prototype RBD with human IgG …. Nature of the assay: SPR. Background: In SPR one partner is held on a chip, and binding of the other changes the refractive index at the surface.

B1: nanobody S43 (VHH)
VHH: QVQLQESGGGLVQPGGSLRLTCAPSGFTLDYYAIGWFRQAPGKEREGVSCISSNNSTYYADSVKGRFTISRDNAKNTVYLQMNSLKPEDTAVYYCAAEPDYSGVYYYTCGWTDFGSWGQGTQVTVSS
As a reminder, the Kd is the equilibrium constant for the complex coming apart. Read a low Kd as tighter binding. Consider B1, for which the “IC50 of neutralization of live SARS-CoV-2 in Vero cells (blocks S with ACE2)” value in assay [1] was found to be 40.7 nM. This molecule gave a Kd in assay [2] of 0.18 nM.

B2: nanobody R14 (VHH)
VHH: QVQLQESGGGLVQPGGSLRLSCAVSGFTLDYYAIGWFRQAPGKEREGVSCISSSDGSTSYADSVKGRFTISRDNAKNTVYLQMNSLKPEDTALYYCAATPATYYSGRYYYQCPAGGMDYWGQGTQVTVSS
As to B2, the “IC50 of neutralization of live SARS-CoV-2 in Vero cells (blocks RBD with hACE2)” value in assay [1] was found to be 1.3 nM.

Source of the values: paper PMC9834170 (Cell Reports Medicine, 2023).
